This note sets out measurements from publication PMC7094243.

As a reminder, the stoichiometry N is a count of units in the complex or per binding partner.

In test [1] the target is T1, SARS coronavirus non-structural protein 15 (Nsp15), wild-type, His-tagged (SARS coronavirus (SARS-CoV)), P0C6X7.
T1 chain: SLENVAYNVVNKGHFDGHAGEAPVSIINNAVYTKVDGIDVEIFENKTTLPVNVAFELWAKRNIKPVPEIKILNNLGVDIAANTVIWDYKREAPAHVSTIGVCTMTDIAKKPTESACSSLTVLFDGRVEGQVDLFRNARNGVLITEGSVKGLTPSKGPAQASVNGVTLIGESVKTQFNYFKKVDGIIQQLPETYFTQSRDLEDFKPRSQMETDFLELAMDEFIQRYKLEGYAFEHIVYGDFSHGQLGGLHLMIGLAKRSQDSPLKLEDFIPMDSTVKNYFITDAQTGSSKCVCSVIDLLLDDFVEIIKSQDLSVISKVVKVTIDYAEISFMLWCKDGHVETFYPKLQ
As to the kind of experiment: AUC. Conditions: remark: other sources report otherwise.

Test [2] addresses T1, SARS coronavirus non-structural protein …. As to the kind of experiment: SEC. Conditions: remark: other sources report otherwise.

B1: SARS coronavirus non-structural protein 15 (Nsp15), wild-type, His-tagged, P0C6X7 (enzyme)
chain: T1 chain
On to B1, for which, in test [1], the stoichiometry N came out at 6. In test [2], this molecule yielded a percent of total protein hexameric of 90% and a stoichiometry N of 6.
